Test results as given in the supplement of paper PMC7125110.
± gives the standard error. This sample holds only a part of the variants without activity.

B1: glmS ribozyme (parent)
chain: AUAAAAGCGCCAGAACUACAGAAAUGUAGUUGACGAGGAGGAGGUUUAUCGAAUUUUCGGCGGAUGCCUCCAAA

How the values were obtained:
Details in all cases: with glucosamine-6-phosphate
[1] = variants of: B1; experiment: self-cleavage kobs at 40 uM GlcN6P; higher = faster cleavage; RNA array
Method in brief: (§1)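 Glucosamine-6-phosphate in HEPES/KCl/Mg(OAc)2 buffer, at 40 μM to 10 mM, was flowed over barcoded ribozyme variants transcribed in situ by E. coli RNA polymerase on sequenced MiSeq chips. Tracking was through a hybridised Cy3 probe at 37 °C. kobs, kcat and KM came from exponential decay fits and weighted Michaelis–Menten fits of normalised per-tile medians.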

[2] = variants of: B1; experiment: self-cleavage kobs at 160 uM GlcN6P; higher = faster cleavage; RNA array
Method in brief: as §1

[3] = variants of: B1; experiment: self-cleavage kobs at 640 uM GlcN6P; higher = faster cleavage; RNA array
Method in brief: as §1

[4] = variants of: B1; experiment: self-cleavage kobs at 2500 uM GlcN6P; higher = faster cleavage; RNA array
Method in brief: as §1

[5] = variants of: B1; experiment: self-cleavage kobs at 10000 uM GlcN6P; higher = faster cleavage; RNA array
Method in brief: as §1

## AUAAAAGCGCCAGAACUACAGAAAUGUAGUUGACGAGGAGGAGGUUUAUCGACUUUUCGGCGUAUGGCGCCAAA
[1]
  self-cleavage kobs at 40 uM GlcN6P: < 1e-05 s⁻¹

## AUAAAAGCGCCAGAACUACAGAAAUGUAGUUGACGAGGAGGAGGUUUAUCGAUUUUUCGGCGGAUGGCUCCAAA
[1]
  self-cleavage kobs at 40 uM GlcN6P: 3.3e-05 ± 8.7e-06 s⁻¹
[2]
  self-cleavage kobs at 160 uM GlcN6P: 7.53e-05 ± 2e-05 s⁻¹
[3]
  self-cleavage kobs at 640 uM GlcN6P: 0.000519 ± 0.00012 s⁻¹
[4]
  self-cleavage kobs at 2500 uM GlcN6P: 0.000628 ± 0.0001 s⁻¹
[5]
  self-cleavage kobs at 10000 uM GlcN6P: 0.00224 ± 0.00024 s⁻¹

## AUAAAAGCGCCAGAACUACAGAAAUGUAGUUGACGAGGAGGAGGUUUAUCGAAUAUUCGGCGGUUGCUUCCAAA
[1]
  self-cleavage kobs at 40 uM GlcN6P: < 1e-05 s⁻¹

## AUAAAAGCGCCAGAACUACAGAAAUGUAGUUGACGAGGAGGAGGUUUAUCGAAAUUUCGGCGGAUGACUCCAAA
[1]
  self-cleavage kobs at 40 uM GlcN6P: 0.000554 ± 0.00013 s⁻¹
[2]
  self-cleavage kobs at 160 uM GlcN6P: 0.000242 ± 4.9e-05 s⁻¹
[3]
  self-cleavage kobs at 640 uM GlcN6P: 0.00148 ± 0.00034 s⁻¹
[4]
  self-cleavage kobs at 2500 uM GlcN6P: 0.00137 ± 0.00037 s⁻¹
[5]
  self-cleavage kobs at 10000 uM GlcN6P: 0.00561 ± 0.0016 s⁻¹

## AUAAAAGCGCCAGAACUACAGAAAUGUAGUUGACGAGGAGGAGGUUUAUCGAUCUUUCGGCGGAUGACUCCAAA
[1]
  self-cleavage kobs at 40 uM GlcN6P: 0.000138 ± 2.9e-05 s⁻¹
[5]
  self-cleavage kobs at 10000 uM GlcN6P: 0.00429 ± 0.0016 s⁻¹

## AUAAAAGCGCCAGAACUACAGAAAUGUAGUUGACGAGGAGGAGGUUUAUCGAAAUUUCGGUAGAUGCCUCCAAA
[1]
  self-cleavage kobs at 40 uM GlcN6P: < 1e-05 s⁻¹
[3]
  self-cleavage kobs at 640 uM GlcN6P: < 1e-05 s⁻¹
[5]
  self-cleavage kobs at 10000 uM GlcN6P: < 1e-05 s⁻¹

## AUAAAAGCGCCAGAACUACAGAAAUGUAGUUGACGAGGAGGAGGUUUAUCGAAUAGUCGGCGGAUGCCUCCAAA
[1]
  self-cleavage kobs at 40 uM GlcN6P: 0.000292 ± 4.8e-05 s⁻¹
[2]
  self-cleavage kobs at 160 uM GlcN6P: 0.000454 ± 8.8e-05 s⁻¹
[3]
  self-cleavage kobs at 640 uM GlcN6P: 0.00368 ± 0.00046 s⁻¹
[4]
  self-cleavage kobs at 2500 uM GlcN6P: 0.00771 ± 0.0013 s⁻¹
[5]
  self-cleavage kobs at 10000 uM GlcN6P: 0.0097 ± 0.0019 s⁻¹

## AUAAAAGCGCCAGAACUACAGAAAUGUAGUUGACGAGGAGGAGGUUUAUCGAAUACUCGGCGGAUGCCUCCAAA
[1]
  self-cleavage kobs at 40 uM GlcN6P: 0.00013 ± 2.5e-05 s⁻¹
[2]
  self-cleavage kobs at 160 uM GlcN6P: 0.000191 ± 3e-05 s⁻¹
[3]
  self-cleavage kobs at 640 uM GlcN6P: 0.000919 ± 0.00017 s⁻¹
[4]
  self-cleavage kobs at 2500 uM GlcN6P: 0.00258 ± 0.00063 s⁻¹
[5]
  self-cleavage kobs at 10000 uM GlcN6P: 0.00781 ± 0.0012 s⁻¹

## AUAAAAGCGCCAGAACUACAGAAAUGUAGUUGACGAGGAGGAGGUUUAUCGAUGUUUCGGCGGAUGCCUCAAAA
[1]
  self-cleavage kobs at 40 uM GlcN6P: 9.49e-05 ± 2.8e-05 s⁻¹
[5]
  self-cleavage kobs at 10000 uM GlcN6P: 0.00478 ± 0.0013 s⁻¹

## AUAAAAGCGCCAGAACUACAGAAAUGUAGUUGACGAGGAGGAGGUUUAUCGACUUUUCGGCUGAUGCCUCCAAA
[1]
  self-cleavage kobs at 40 uM GlcN6P: < 1e-05 s⁻¹
[2]
  self-cleavage kobs at 160 uM GlcN6P: < 1e-05 s⁻¹
[4]
  self-cleavage kobs at 2500 uM GlcN6P: < 1e-05 s⁻¹
[5]
  self-cleavage kobs at 10000 uM GlcN6P: < 1e-05 s⁻¹

## AUAAAAGCGCCAGAACUACAGAAAUGUAGUUGACGAGGAGGAGGUUUAUCGAAAUUUCGGCGGAUGCUUCCAAA
[1]
  self-cleavage kobs at 40 uM GlcN6P: 0.000391 ± 6.1e-05 s⁻¹
[2]
  self-cleavage kobs at 160 uM GlcN6P: 0.000218 ± 4.6e-05 s⁻¹
[3]
  self-cleavage kobs at 640 uM GlcN6P: 0.000767 ± 0.00017 s⁻¹
[4]
  self-cleavage kobs at 2500 uM GlcN6P: 0.000405 ± 0.00011 s⁻¹

## AUAAAAGCGCCAGAACUACAGAAAUGUAGUUGACGAGGAGGAGGUUUAUCGAAGUUUCGGCGGAUGACUCCAAA
[1]
  self-cleavage kobs at 40 uM GlcN6P: 0.000326 ± 7.1e-05 s⁻¹
[2]
  self-cleavage kobs at 160 uM GlcN6P: 0.000481 ± 9.8e-05 s⁻¹
[3]
  self-cleavage kobs at 640 uM GlcN6P: 0.000916 ± 0.00018 s⁻¹
[4]
  self-cleavage kobs at 2500 uM GlcN6P: 0.00208 ± 0.00067 s⁻¹
[5]
  self-cleavage kobs at 10000 uM GlcN6P: 0.00623 ± 0.0012 s⁻¹

## AUAAAAGCGCCAGAACUACAGAAAUGUAGUUGACGAGGAGGAGGUUUAUCGAGUUUUCGGCGGAUGCCCCCAAA
[1]
  self-cleavage kobs at 40 uM GlcN6P: 0.000897 ± 0.00014 s⁻¹
[2]
  self-cleavage kobs at 160 uM GlcN6P: 0.000469 ± 8.4e-05 s⁻¹
[3]
  self-cleavage kobs at 640 uM GlcN6P: 0.00235 ± 0.00048 s⁻¹
[4]
  self-cleavage kobs at 2500 uM GlcN6P: 0.002 ± 0.00044 s⁻¹
[5]
  self-cleavage kobs at 10000 uM GlcN6P: 0.00674 ± 0.0018 s⁻¹

## AUAAAAGCGCCAGAACUACAGAAAUGUAGUUGACGAGGAGGAGGUUUAUCGAAUAUUCGCCGGAUGCCUCCAAA
[1]
  self-cleavage kobs at 40 uM GlcN6P: < 1e-05 s⁻¹
[3]
  self-cleavage kobs at 640 uM GlcN6P: < 1e-05 s⁻¹

## AUAAAAGCGCCAGAACUACAGAAAUGUAGUUGACGAGGAGGAGGUUUAUCGAAUAUUCGGCGGAUGGCUCCAAA
[1]
  self-cleavage kobs at 40 uM GlcN6P: 0.000126 ± 3.4e-05 s⁻¹
[2]
  self-cleavage kobs at 160 uM GlcN6P: 0.000104 ± 2.1e-05 s⁻¹
[3]
  self-cleavage kobs at 640 uM GlcN6P: 0.000179 ± 2.8e-05 s⁻¹
[4]
  self-cleavage kobs at 2500 uM GlcN6P: 0.00013 ± 2e-05 s⁻¹
[5]
  self-cleavage kobs at 10000 uM GlcN6P: 0.00061 ± 0.00014 s⁻¹

## AUAAAAGCGCCAGAACUACAGAAAUGUAGUUGACGAGGAGGAGGUUUAUCGAAAUUUCGGCGGAUGCCUCAAAA
[1]
  self-cleavage kobs at 40 uM GlcN6P: 0.000351 ± 6.3e-05 s⁻¹
[2]
  self-cleavage kobs at 160 uM GlcN6P: 0.000583 ± 8.5e-05 s⁻¹
[3]
  self-cleavage kobs at 640 uM GlcN6P: 0.000818 ± 0.00011 s⁻¹
[4]
  self-cleavage kobs at 2500 uM GlcN6P: 0.00847 ± 0.0023 s⁻¹
[5]
  self-cleavage kobs at 10000 uM GlcN6P: 0.0109 ± 0.0026 s⁻¹

## AUAAAAGCGCCAGAACUACAGAAAUGUAGUUGACGAGGAGGAGGUUUAUCGAUUUUUCGGUGGAUGCCUCCAAA
[1]
  self-cleavage kobs at 40 uM GlcN6P: < 1e-05 s⁻¹
[2]
  self-cleavage kobs at 160 uM GlcN6P: < 1e-05 s⁻¹

## AUAAAAGCGCCAGAACUACAGAAAUGUAGUUGACGAGGAGGAGGUUUAUCGAUUUUUCGGCGGAUGCCCCCAAA
[1]
  self-cleavage kobs at 40 uM GlcN6P: 0.000317 ± 6.8e-05 s⁻¹
[2]
  self-cleavage kobs at 160 uM GlcN6P: 0.000141 ± 5.3e-05 s⁻¹
[3]
  self-cleavage kobs at 640 uM GlcN6P: 0.00104 ± 0.0003 s⁻¹
[5]
  self-cleavage kobs at 10000 uM GlcN6P: 0.00288 ± 0.00074 s⁻¹

## AUAAAAGCGCCAGAACUACAGAAAUGUAGUUGACGAGGAGGAGGUUUAUCGAGUUUUCGUCGGAUGCCUCCAAA
[1]
  self-cleavage kobs at 40 uM GlcN6P: < 1e-05 s⁻¹
[2]
  self-cleavage kobs at 160 uM GlcN6P: < 1e-05 s⁻¹
[3]
  self-cleavage kobs at 640 uM GlcN6P: < 1e-05 s⁻¹

## AUAAAAGCGCCAGAACUACAGAAAUGUAGUUGACGAGGAGGAGGUUUAUCGAGUUUUCGGCGGAUGCCUUCAAA
[1]
  self-cleavage kobs at 40 uM GlcN6P: 0.00158 ± 0.00015 s⁻¹
[2]
  self-cleavage kobs at 160 uM GlcN6P: 0.00129 ± 0.00027 s⁻¹
[3]
  self-cleavage kobs at 640 uM GlcN6P: 0.0139 ± 0.0036 s⁻¹
[5]
  self-cleavage kobs at 10000 uM GlcN6P: 0.0616 ± 0.014 s⁻¹

## AUAAAAGCGCCAGAACUACAGAAAUGUAGUUGACGAGGAGGAGGUUUAUCGAAGUUUCGGCGGAUGCCUCAAAA
[1]
  self-cleavage kobs at 40 uM GlcN6P: 0.00016 ± 3.2e-05 s⁻¹
[4]
  self-cleavage kobs at 2500 uM GlcN6P: 0.00157 ± 0.00049 s⁻¹
[5]
  self-cleavage kobs at 10000 uM GlcN6P: 0.00496 ± 0.001 s⁻¹
